3 molecules from patent US20230051715A1 (MABWELL THERAPEUTICS, published 2023) can be followed below.

For test [1], the target named is T1, cynomolgus monkey C1s (produced in house) (cynomolgus monkey, UniProt P09871 16-685 (human entry), limits assumed).
T1 construct: also called CyC1s
T1 chain: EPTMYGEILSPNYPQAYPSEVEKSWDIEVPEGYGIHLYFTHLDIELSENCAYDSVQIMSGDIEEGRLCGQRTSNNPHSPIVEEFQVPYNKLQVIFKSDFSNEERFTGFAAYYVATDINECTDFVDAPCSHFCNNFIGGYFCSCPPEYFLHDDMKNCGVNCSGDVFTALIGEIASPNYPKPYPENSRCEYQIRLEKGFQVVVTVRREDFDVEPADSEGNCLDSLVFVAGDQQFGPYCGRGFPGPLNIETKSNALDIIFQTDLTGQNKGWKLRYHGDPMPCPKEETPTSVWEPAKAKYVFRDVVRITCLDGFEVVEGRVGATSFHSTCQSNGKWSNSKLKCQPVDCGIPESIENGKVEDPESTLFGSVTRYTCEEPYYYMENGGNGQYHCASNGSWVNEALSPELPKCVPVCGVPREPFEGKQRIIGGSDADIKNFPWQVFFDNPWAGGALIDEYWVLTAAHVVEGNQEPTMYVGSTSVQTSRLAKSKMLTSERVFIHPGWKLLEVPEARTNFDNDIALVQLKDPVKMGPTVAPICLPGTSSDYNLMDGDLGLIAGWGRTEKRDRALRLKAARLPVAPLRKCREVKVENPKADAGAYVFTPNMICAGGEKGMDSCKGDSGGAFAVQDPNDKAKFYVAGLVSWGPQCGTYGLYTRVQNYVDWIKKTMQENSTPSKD
Nature of the test: BLI (Octet RED96e), antibody on AHC biosensor; C1s Species: Cyno Monkey; R^2 0.9999. The source says:
At last, analyte was dissociated in 1×KB for 360 sec. Data analysis was done using OCTET® Data Analysis HT Software (Sartorius AG).

Test [2] concerns the target T2, human C1s deletion mutant 3 (NHCΔ33) (human, UniProt P09871 16-404).
T2 construct: C-terminal 6xHis tag; also called human C1s (NHCΔ33); C1s (NHCΔ33)
T2 sequence: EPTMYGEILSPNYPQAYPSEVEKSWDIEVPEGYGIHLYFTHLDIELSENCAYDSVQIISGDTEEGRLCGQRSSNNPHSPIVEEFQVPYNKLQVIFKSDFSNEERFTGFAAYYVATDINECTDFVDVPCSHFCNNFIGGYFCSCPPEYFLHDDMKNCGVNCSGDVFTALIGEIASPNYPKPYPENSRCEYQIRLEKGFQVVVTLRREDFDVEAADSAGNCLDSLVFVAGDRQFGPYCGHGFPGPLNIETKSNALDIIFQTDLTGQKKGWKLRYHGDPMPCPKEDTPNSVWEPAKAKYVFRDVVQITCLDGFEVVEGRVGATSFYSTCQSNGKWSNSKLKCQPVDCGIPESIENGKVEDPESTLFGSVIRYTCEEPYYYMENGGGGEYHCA
In words: ELISA, C1s fragment coated on plate; hz2-8(H1L2 G80A), first of the two values. Here is the method: (§1) ELISA was carried out by first coating 96-well plates with 200 ng/well of full-length or truncated C1s proteins overnight. The next morning, plates were blocked with SuperBlock T20 blocking buffer (Thermo Scientific 37536) for 1 h with gentle shaking. Then, various concentrations of anti-C1s antibodies diluted in SuperBlock T20 blocking buffer were added to the plates and incubated for 1 h with gentle shaking. Mouse IgG (Sigma-Aldrich 15381) and human IgG1 (BioXCell BP0297) were used as negative controls. The plates were washed before incubating with HRP conjugated secondary antibodies diluted in SuperBlock T20 blocking buffer (goat anti-mouse IgG (H+L) cross-adsorbed secondary antibody HRP (Invitrogen G-21040) or goat anti-human IgG antibody, HRP conjugate (Millipore AP309P)) for 1 h with gentle shaking. At last, the plates were washed and color developed with ELISA liquid HRP substrate (Sigma-Aldrich), followed by stopping the reaction with addition of 1M H₂SO₄ in the same volume as the ELISA liquid substrate. Bound antibody was measured by absorbance at OD₄₅₀ₙₘ.
Binding of various anti-C1s antibodies to human C1s (NHCΔ33) (SEQ ID NO: 111) was carried out by ELISA as described in Example 4, and results are shown in FIG. 6A.
On the technique in general: An ELISA detects its analyte on a solid surface through an enzyme-linked reagent.

In test [3] the target is T3, human C1s mutant M5 (K336G) (human, UniProt P09871 16-688).
T3 construct: The entry is the mutant itself
T3 sequence: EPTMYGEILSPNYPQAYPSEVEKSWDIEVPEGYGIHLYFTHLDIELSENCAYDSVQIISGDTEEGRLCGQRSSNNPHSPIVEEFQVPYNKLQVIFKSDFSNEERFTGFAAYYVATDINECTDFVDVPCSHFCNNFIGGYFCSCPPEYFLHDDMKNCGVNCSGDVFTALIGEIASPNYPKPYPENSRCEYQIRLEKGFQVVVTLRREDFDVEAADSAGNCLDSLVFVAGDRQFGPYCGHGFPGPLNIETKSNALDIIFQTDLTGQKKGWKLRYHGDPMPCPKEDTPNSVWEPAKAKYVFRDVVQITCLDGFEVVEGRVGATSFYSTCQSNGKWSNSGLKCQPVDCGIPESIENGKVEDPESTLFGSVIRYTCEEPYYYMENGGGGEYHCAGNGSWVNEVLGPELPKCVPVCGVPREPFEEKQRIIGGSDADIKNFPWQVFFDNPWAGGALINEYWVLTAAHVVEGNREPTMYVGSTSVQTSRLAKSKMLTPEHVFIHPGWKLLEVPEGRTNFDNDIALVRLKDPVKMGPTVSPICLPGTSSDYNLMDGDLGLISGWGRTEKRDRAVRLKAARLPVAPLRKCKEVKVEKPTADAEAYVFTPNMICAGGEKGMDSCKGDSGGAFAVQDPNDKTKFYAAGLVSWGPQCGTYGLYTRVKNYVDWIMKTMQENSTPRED
Nature of the test: ELISA, plate coated with human C1s mutant M5: K336G, OD450nm; curve still rising at 1000 ng/ml, no upper plateau in the range. On the procedure:
as §1
Binding of anti-C1s antibodies to mutants M1-M20 of human C1s was measured by ELISA as described in Example 4, and results are shown in FIGS. 6B-6U. […]

B1: Anti-C1s antibody 2-7 (antibody, human IgG1, kappa, V domains shown)
VH: EVKLEESGGGLVPPGGSMKLSCVASGFTFSNYFMNWVRQSPEKGLEWVAEIRLKFTNYATHYAESVEGRFTISRDDSKSSVYLQMNNLRAEDTGIYYCTRDYGSRNGYFDYWGQGTTLTVSS
VL: DIVMTQAAPSVPVTPGESVSISCRSSKSLLHSNGNTFLYWFLQRPGQSPQLLIYRMSNLASGVPDRFSGSGSGTAFTLRVSRVEAEDVGIYYCMQHLEYPYTFGGGTKLEIKT
notes: the HC/LC entries may hold it too; also called clone 2-7
For the molecule B1, in test [1], the Kd (usually the equilibrium constant for the complex coming apart) amounted to 230 pM; the koff (usually a measure of how fast the partners let go of each other) was 6.5e-05 s⁻¹; the kon (in general, a measure of how fast the partners come together) was determined as 280000 M⁻¹ s⁻¹.

B2: Anti-C1s antibody hz2-8 (H1L2 G80A) (antibody, V domains shown)
VH: QVQLVQSGAEVKKPGASVKVSCKASGFNIKEYYMHWVRQAPEQGLEWMGWIDPENADTIYAQKFQGRVTITADTSTNTAYMELSSLRSEDTAVYYCARSRLFFAYWGQGTLVTVSS
VL: DIQMTQSPKSLSASVGDRVTITCRASQDVRTALDWYQQKPGQSPKLLIYSASYRYSGVPSRFSGSGSGTDFTLTISSLQPEDFATYYCQQQYTTPYTFGQGTKLEIKR
notes: Humanized variant with G80A in HC CDR2 (already in the entry), human IgG1 / kappa
As for B2, in test [2], the EC50 (commonly the concentration needed to bring the measured effect to its halfway point) is 0.008 µg/mL.

B3: Anti-C1s antibody hz2-8 (H1L2 G80A/T82A) (antibody, V domains shown)
VH: QVQLVQSGAEVKKPGASVKVSCKASGFNIKEYYMHWVRQAPEQGLEWMGWIDPENADAIYAQKFQGRVTITADTSTNTAYMELSSLRSEDTAVYYCARSRLFFAYWGQGTLVTVSS
VL: DIQMTQSPKSLSASVGDRVTITCRASQDVRTALDWYQQKPGQSPKLLIYSASYRYSGVPSRFSGSGSGTDFTLTISSLQPEDFATYYCQQQYTTPYTFGQGTKLEIKR
notes: Humanized variant with G80A and T82A in HC CDR2 (already in the entry), human IgG1 / kappa
B3 gave an EC50 in test [3] of 0.468 µg/mL.
